Assay results taken from patent US20170166631A1 (published 2017).
Where two headings read alike, the source gives them in different places.

Legend:
Assay in all cases: ELISA
[1] = target: T1, HD21 (huntingtin exon 1 protein with 21 polyQ repeats after cleavage of the GST tag; aggregation reaction) (human, UniProt P42858 1-88)
T1 chain: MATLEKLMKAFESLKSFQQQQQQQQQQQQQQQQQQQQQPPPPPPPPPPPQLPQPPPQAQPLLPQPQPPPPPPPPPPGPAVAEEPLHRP

[2] = target: T2, HD49 (huntingtin exon 1 protein with 49 polyQ repeats after cleavage of the GST tag; aggregation reaction) (human, UniProt P42858 1-88)
T2 chain: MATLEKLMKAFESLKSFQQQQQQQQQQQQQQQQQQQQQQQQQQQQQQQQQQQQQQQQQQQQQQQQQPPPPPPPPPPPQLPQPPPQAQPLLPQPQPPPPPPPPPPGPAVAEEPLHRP

[3] = target: T3, GST-HttExon1Q21 (recombinant huntingtin exon 1 protein with 21 polyQ repeats fused to an N-terminal GST tag) (;human, UniProt P08515 1-218 = GST; P42858 1-88)
[4] = target: T1, HD21 (huntingtin exon 1 protein with 21 …)
[5] = target: T2, HD49 (huntingtin exon 1 protein with 49 …)
[6] = target: T3, GST-HttExon1Q21 (recombinant huntingtin …); remark: listed apart in the source
Target sequence in this assay (P08515 1-218, tags or fused parts left off): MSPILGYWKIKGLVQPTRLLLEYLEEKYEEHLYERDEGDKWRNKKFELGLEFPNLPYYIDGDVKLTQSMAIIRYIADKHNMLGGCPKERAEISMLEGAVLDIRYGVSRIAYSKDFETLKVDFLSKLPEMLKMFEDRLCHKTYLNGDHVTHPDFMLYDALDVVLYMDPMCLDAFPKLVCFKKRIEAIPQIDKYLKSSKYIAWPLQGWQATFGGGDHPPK

[7] = target: T1, HD21 (huntingtin exon 1 protein with 21 …)
[8] = target: T2, HD49 (huntingtin exon 1 protein with 49 …)
[9] = target: T3, GST-HttExon1Q21 (recombinant huntingtin …); remark: listed apart in the source
[10] = target: T1, HD21 (huntingtin exon 1 protein with 21 …)
[11] = target: T4, BSA-coupled synthetic peptide of the P-rich domain sequence of huntingtin exon 1 (coupled to BSA)
T4 peptide: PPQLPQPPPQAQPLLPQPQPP

[12] = target: T2, HD49 (huntingtin exon 1 protein with 49 …)
[13] = target: T3, GST-HttExon1Q21 (recombinant huntingtin …); remark: listed apart in the source
Target sequence in this assay (P08515 1-218, tags or fused parts left off): as the sequence (P08515 1-218, tags or fused parts left off) above

[14] = target: T5, BSA-coupled synthetic peptide of the 14 C-terminal amino acids of huntingtin exon 1 (coupled to BSA)
T5 peptide: PPGPAVAEEPLHRP

[15] = target: T1, HD21 (huntingtin exon 1 protein with 21 …)
[16] = target: T2, HD49 (huntingtin exon 1 protein with 49 …)
[17] = target: T3, GST-HttExon1Q21 (recombinant huntingtin …); remark: listed apart in the source

B1: NI-302.39G12 (antibody, V domains shown)
VH: EVQLVQSGGGLVHPWGSLRLSCAASGFSVSNYAITWVRRAPGKGLQYISVIYRDGRTYYGDSVRGRFTISRDDSKNTLYLQMNSLRFEDTAVYYCARAHGQYYYGVDVWGQGTTVTVSS
VL: DVVMTQSPLSLSVSPGEPASISCRSSQSLLHSNGYNYLDWYRQKPGQSPQLLIYLSSNRPSGVPDRFSASGSGTEFTLQISRVEAEDVGVYYCMQSLQTFTFGGGTKVDIK
Question: What does the source list for B1?
Answer: EC50 [1]: 15 nM; EC50 [2]: 28 nM; EC50 [3]: 3.4 nM; EC50 [4]: 15 nM; EC50 [5]: 28 nM; EC50 [6]: 3.4 nM

B2: NI-302.64E5 (antibody, V domains shown)
VH: EVQLVETGGGLVKPGGSLRLSCAASGFTFDQAWMSWVRQVPGKGLEWVGRIKTKTEGEATDYAAPVRGRFTISRDDSEDTVFLQMNSLKTEDTALYYCTSTGVLAAAVDVYWGQGTLVTVSS
VL: DIQLTQSPDSLAVSLGERATMTCKSSQSLFYSYNNENYLAWYQQRPGQPPKLLIYWASTRESGVPDRFSGSGSGTDFTLTISSLQAEDVAVYYCQQYYSTPQTFGQGTKVDIK
Question: How did the EC50 [7] turn out when B2 was run?
Answer: The EC50 was 0.7 nM.

Question: What about the EC50 [8] of the same binder?
Answer: Its EC50 is 1.6 nM.

Question: And the EC50 [9]?
Answer: The EC50 was 1.4 nM.

Question: What about the EC50 [10] of the same binder?
Answer: The EC50 was 0.7 nM.

Question: What about the EC50 [11] of the same binder?
Answer: The EC50 was 0.1 nM.

Question: And the EC50 [12]?
Answer: The EC50 was 1.6 nM.

Question: And the EC50 [13]?
Answer: The EC50 was 1.4 nM.

B3: NI-302.11A4 (antibody, V domains shown)
VH: EVQLVESGGGLIQPGGSLRLSCAASGFPVSSSYMSWVRQAPGEGLEWVSVLYRDGDTYYADSVQGRFTISRDNSQNTFYLQMNSLKAEDTAVYYCAGDRRSSHYYYGMDVWGQGTTVTVSS
VL: EIVMTQSPGTLSLSPGERATLSCRASQSVSSSYFAWYQQKPGQAPRLLIYGTSRRATAIPDRFSGSGSGTDFTLTISRLEPEDFAVYYCQQYGSSWTFGPGTKVEIK
Question: B3 was tested. Which EC50 [1] did it give?
Answer: The EC50 was 18.2 nM.

Question: What about the EC50 [2] of the same binder?
Answer: Its EC50 is 19 nM.

Question: What about the EC50 [3] of the same binder?
Answer: Its EC50 is 1.4 nM.

Question: What about the EC50 [4] of the same binder?
Answer: The EC50 was 18 nM.

Question: What about the EC50 [5] of the same binder?
Answer: The EC50 was 19 nM.

Question: And the EC50 [6]?
Answer: Its EC50 is 1.4 nM.

B4: NI-302.72F10 (antibody, V domains shown)
VH: EVQLVETGGGFVQPGGSLRLSCAASGFNFGSYAMSWVRQAPGKGLEWVSDISGIGSNTYYADSVKGRFTISRDNSDNTLYLDMSSLRAEDTARYYCAKDRKRSGWYEQWGQGTLVTVSS
VL: EIVMTQSPATLTLSPGERATLSCRASQSISAYLGWYQQKPGQAPRLLIYDASIRATGIPDRFSGSGSGTDFTLTISSLEPEDSAVYYCHQRSKWPLTFGGGTKVEIK
Question: With B4 as the binder, how does the EC50 [7] read?
Answer: The EC50 was 4 nM.

Question: And the EC50 [8]?
Answer: The EC50 was 26 nM.

Question: What about the EC50 [9] of the same binder?
Answer: The EC50 was 10 nM.

Question: And the EC50 [10]?
Answer: The EC50 was 4 nM.

Question: What about the EC50 [14] of the same binder?
Answer: The EC50 was 0.1 nM.

Question: What about the EC50 [12] of the same binder?
Answer: The EC50 was 26 nM.

Question: And the EC50 [13]?
Answer: Its EC50 is 10 nM.

B5: NI-302.63F3 (antibody, V domains shown)
VH: QVQLVQSGSAFKKPGTSVKVSCKASGYTFETRSMNWVRQAPGQGLEYMGWINTNTGNRTYVQAFRGRFVFSLDTSVSTAYLQISNLKTEDTAVYYCARGAGGGYWFDSWGQGTLVTVSS
VL: DIQMTQSPDSLAVSLGERATINCKSNQSLFYSSNNNNYLAWYQHKSGQPPKLLVYWGSTRESGVPDRFSGSGSGTDFTLTISSLQAEDVAIYYCHQYYHNPYTFGQGTKLEIK
Question: B5 was tested. Which EC50 [10] did it give?
Answer: Its EC50 is 0.3 nM.

Question: What about the EC50 [11] of the same binder?
Answer: Its EC50 is 0.3 nM.

Question: And the EC50 [12]?
Answer: The EC50 was 0.4 nM.

Question: And the EC50 [13]?
Answer: Its EC50 is 0.2 nM.

Question: What about the EC50 [15] of the same binder?
Answer: Its EC50 is 0.3 nM.

Question: What about the EC50 [16] of the same binder?
Answer: Its EC50 is 0.4 nM.

Question: What about the EC50 [17] of the same binder?
Answer: Its EC50 is 0.2 nM.
